What is called stoichiometry N is the number of molecules, sites or subunits per partner or assembly.

The labels stand for the following.
B2: Tup1 N72, the Ssn6-interaction and Tup1 oligomerization domain (domain or fragment, yeast, UniProt P16649 1-72, looked up)
chain: MTASVSNTQNKLNELLDAIRQEFLQVSQEANTYRLQNQKDYDFKMNQQLAEMQQIRNTVYELELTHRKMKDA
notes: One molecule stands for both two-hybrid forms: LexA-Tup1 N72 as bait and Tup1 N72-Vp16 as prey; also called LexA-Tup1 N72; Tup1 N72-Vp16; source: yeast two-hybrid fusion (LexA hybrid from YCp91; Vp16 hybrid from YEp92)
B3: Ssn6 Sc3T (N175), the 175 amino-terminal residues of Ssn6 (domain or fragment, yeast, UniProt P14922 1-175, looked up)
chain: MNPGGEQTIMEQPAQQQQQQQQQQQQQQQQAAVPQQPLDPLTQSTAETWLSIASLAETLGDGDRAAMAYDATLQFNPSSAKALTSLAHLYRSRDMFQRAAELYERALLVNPELSDVWATLGHCYLMLDDLQRAYNAYQQALYHLSNPNVPKLWHGIGILYDRYGSLDYAEEAFAK
notes: Ssn6 (also known as Cyc8), yeast, the 175 amino-terminal residues: NTpolyQ tail and TPRs 1 to 3; One molecule stands for both two-hybrid forms of the same fragment: LexA-Sc3T as bait and Sc3T-Vp16 as prey; A chain carries either LexA or Vp16, never both; The LexA form was also used in the repression assay; also called LexA-Ssn6 Sc3T; LexA-Sc3T (N175); source: yeast two-hybrid fusion (LexA hybrid …)

Data set [1] addresses B2. Put plainly: cell-based or functional assay.
The target of data set [2] is B3. The data set can be described thus: two-hybrid; LexA hybrids as DNA-binding baits, Vp16 or Gal4 activation domain hybrids as preys; wild-type yeast strain; lacZ reporter JK103 with four LexA operators upstream of the GAL1 TATA element; beta-galactosidase activity in Miller units, average of at least three transformants. Conditions: partners not purified.
Data set [3] deals with the molecule itself. The data set is described as above.
Data set [4] addresses B2. The data set is described as above. Conditions: partners not purified.
Data set [5] deals with the molecule itself. The data set can be described thus: SEC; Biogel P100 gel filtration in 20 mM phosphate buffer pH 8.0, 300 mM NaCl, 1 mM DTT; calibrated with protein standards; self-association of the fragment. For orientation: SEC sorts molecules by how far they enter the pores of the column.

B1: Ssn6 Δ29 (amino acids 30 to 180) (domain or fragment, yeast, UniProt P14922 30-180, looked up)
chain: QAAVPQQPLDPLTQSTAETWLSIASLAETLGDGDRAAMAYDATLQFNPSSAKALTSLAHLYRSRDMFQRAAELYERALLVNPELSDVWATLGHCYLMLDDLQRAYNAYQQALYHLSNPNVPKLWHGIGILYDRYGSLDYAEEAFAKVLELD
notes: Ssn6 (also known as Cyc8), yeast, amino acids 30 to 180; lacks residues 1-29 of the NTpolyQ tail and contains three intact TPRs; also called Ssn6 Δ29-Gal4; LexA-Ssn6 Δ29; source: yeast two-hybrid fusion (clone isolated from a Gal4pAD yeast genomic library, pACTII)
Regarding B1, the “fold repression of the 4Lop-CYC1 lacZ reporter by LexA-Ssn6 Δ29 in the wild-type strain (endogenous Tup1)” value in data set [1] was determined as 1 fold. The beta-galactosidase activity in data set [2] came to 93 Miller units.

Regarding B2, the beta-galactosidase activity in data set [2] worked out at 51 Miller units; in data set [3] it was 56 Miller units. B3: the “fold repression of the 4Lop-CYC1 lacZ reporter by LexA-Ssn6 Sc3T in the wild-type strain (endogenous Tup1)” value in data set [1] was found to be 12 fold. In data set [4], this molecule had a beta-galactosidase activity of 80 Miller units.

B4: Ssn6 Δ45 (amino acids 46-181), Vp16 activation hybrid (domain or fragment, yeast, UniProt P14922 46-181, looked up)
chain: AETWLSIASLAETLGDGDRAAMAYDATLQFNPSSAKALTSLAHLYRSRDMFQRAAELYERALLVNPELSDVWATLGHCYLMLDDLQRAYNAYQQALYHLSNPNVPKLWHGIGILYDRYGSLDYAEEAFAKVLELDP
notes: Ssn6 (also known as Cyc8), yeast, amino acids 46-181; lacks the entire NTpolyQ tail (1-45); the four N-terminal TPRs; also called Ssn6 Δ45-Vp16; Ssn6 Δ45-Vp1; source: yeast two-hybrid fusion (YEp92)
As for B4, the “fold repression of the 4Lop-CYC1 lacZ reporter by LexA-Ssn6 Δ45 in the wild-type strain (endogenous Tup1)” value in data set [1] was 1 fold. In data set [2], this molecule had a beta-galactosidase activity of 122 Miller units.

B5: Ssn6 Δ45 (amino acids 46-181), purified recombinant fragment (domain or fragment, yeast, UniProt P14922 46-181, looked up)
chain: AETWLSIASLAETLGDGDRAAMAYDATLQFNPSSAKALTSLAHLYRSRDMFQRAAELYERALLVNPELSDVWATLGHCYLMLDDLQRAYNAYQQALYHLSNPNVPKLWHGIGILYDRYGSLDYAEEAFAKVLELDP
notes: Ssn6 (also known as Cyc8), yeast, amino acids 46-181; the four N-terminal TPRs, without the NTpolyQ tail; Cloned in pGEX-2T; GST was removed with thrombin on the column; also called GST-Δ45; source: E. coli BL21(DE3), purified (Glutathione Sepharose 4B, thrombin digestion, Biogel P100 gel filtration)
On to B5, for which the “stoichiometry N” value in data set [5] is roughly 3.

The record behind these values is article PMC5650148, “Ssn6-Tup1 global transcriptional co-repressor: Role of the N-terminal glutamine-rich region of Ssn6” (PLoS ONE, 2017).
